Measured values: US20040091487A1 (ALBERT EINSTEIN COLLEGE OF MEDICINE OF YESHIVA UNIVERSITY, published 2004)

B2: GAL4AC (other, UniProt P04386 768-881, looked up)
chain: ANFNQSGNIADSSLSFTFTNSSNGPNLITTQTNSQALSQPIASSNVHDNFMNNEITASKIDDGNNSKPLSPGWTDQTAYNAFGITTGMFNTTTMDDVYNYLFDDEDTPPNPKKE
notes: Negative control of the two-hybrid assay; also called GAL4AC alone

Tests used:
[1] = target: T1, GAL4AC-IN-2 (HIV-2, UniProt P04584 1172-1464); assay: yeast two-hybrid, β-Gal staining
T1 construct: domain: integrase
T1 sequence: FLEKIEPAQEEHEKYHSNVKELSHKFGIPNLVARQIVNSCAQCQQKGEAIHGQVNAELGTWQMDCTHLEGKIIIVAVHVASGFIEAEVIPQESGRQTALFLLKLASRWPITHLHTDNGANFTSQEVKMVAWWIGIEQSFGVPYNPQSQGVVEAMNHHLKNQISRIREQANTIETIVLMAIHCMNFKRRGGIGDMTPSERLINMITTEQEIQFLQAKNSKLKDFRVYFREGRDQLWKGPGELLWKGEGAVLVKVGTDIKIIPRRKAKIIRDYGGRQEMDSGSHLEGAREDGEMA
Text: (§1) To determine the specificity of interaction of INI1 with retroviral INs, we first examined the interaction of various INs with INI1/hSNF5 using the yeast two-hybrid system. […] The transformants were stained with X-GAL to detect positive interactions between the various retroviral INs and INI1/hSNF5.

[2] = target: T2, GAL4AC-IN-1 (HIV-1, UniProt P04585 1148-1435); assay: yeast two-hybrid, β-Gal staining
T2 construct: domain: integrase
Text: as §1

[3] = target: B2; assay: yeast two-hybrid, β-Gal staining
Text: as §1

[4] = target: T3, LexADB-INI1/hSNF5 (human, UniProt P0A7C2 1-87 (Escherichia coli entry), limits assumed); assay: yeast two-hybrid, β-Gal staining
T3 construct: also called pSH2-INI1
Text: as §1

[5] = target: T4, LexADB-IN-1 (HIV-1, UniProt P0A7C2 1-87; P04585 1148-1435); assay: yeast two-hybrid, β-Gal staining
T4 construct: Yeast two-hybrid fusion
Text: as §1

[6] = target: T4, LexADB-IN-1; assay: reverse yeast two-hybrid, X-Gal staining

B1: LexADB (other, UniProt P0A7C2 1-87, looked up)
chain: MKALTARQQEVFDLIRDHISQTGMPPTRAEIAQRLGFRSPNAAEEHLKALARKGVIEIVSGASRGIRLLQEEEEGLPLVGRVAAGEP
notes: Negative control of the two-hybrid assay; also called LexADB alone
[1]
  binding result: no binding
[2]
  binding result: no binding
[3]
  binding result: no binding

## B2
[4]
  binding result: no binding
[5]
  binding result: no binding

B3: GAL4-AC fusion of S6 mutant E3 (other)
chain: PEVLVPIRLDMEIDGQKLRDAFTWNMNEKLMTPEMFSEILCGDLDLNPLTFVPAIASAIRQQIESYPTDSILEDQSDQRVIIKLNIHVGNISLVDQFEWDMSEKENSPEKFA
notes: also called pGADNot-E3
[6]
  binding result: no binding

B4: GAL4-AC fusion of S6 mutant E4 (other)
chain: PEVLVPIRLDMEIDGQKLRDAFTWNMNEKLMAPEMFSEILCDDLDLNPLTFVPAIASAIRQQIESYPTDSILEDQSDQRVIIKLNIHVGNISLVDQFEWDMSEKENSPEKFA
[6]
  binding result: no binding

B5: GAL4-AC fusion of S6 mutant E10 (other)
chain: PEVLVPIRLDMEIDGQKLRDAFTWNMNEKLMTPEMFSEILCDDLGLNPLTFVPAIASAIRQQIESYPTDSILEDQSDQRVIIKLNIHVGNISLVDQFEWDMSEKENSPEKFA
[6]
  binding result: no binding
